The target of the experiment is FcRn β2-microglobulin complex (UniProt P55899). The experiment in a line: BLI. A general note: Biolayer interferometry detects binding as a change in optical thickness at a sensor tip.

The Kd is a measure of binding affinity in units of concentration.

Chain of UniProt P55899 (P55899 24-365, chain 1 of 2): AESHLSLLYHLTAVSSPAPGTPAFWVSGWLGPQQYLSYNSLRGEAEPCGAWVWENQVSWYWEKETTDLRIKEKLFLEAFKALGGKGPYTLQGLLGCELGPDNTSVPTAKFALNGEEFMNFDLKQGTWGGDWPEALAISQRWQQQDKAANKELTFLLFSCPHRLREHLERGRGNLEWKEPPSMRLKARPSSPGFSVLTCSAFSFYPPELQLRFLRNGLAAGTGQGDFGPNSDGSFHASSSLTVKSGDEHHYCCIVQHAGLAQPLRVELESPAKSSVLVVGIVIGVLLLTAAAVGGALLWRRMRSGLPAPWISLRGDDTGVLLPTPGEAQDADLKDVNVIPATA
Chain of UniProt P55899 (P61769 21-119, chain 2 of 2, further chain): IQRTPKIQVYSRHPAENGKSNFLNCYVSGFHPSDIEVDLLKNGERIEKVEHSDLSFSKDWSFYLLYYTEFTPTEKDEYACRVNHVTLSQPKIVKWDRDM

For “single-chain IgG atezolizumab (scAtezo) (antibody)”, the Kd came out at 6.2 nM.
